The text below walks through data of patent publication US20260167721A1 (ABLEXIS, published 2026).

Substitutions are numbered along the chain they refer to.

The Kd is the concentration at which binding is half-saturated. For orientation: koff means the rate constant with which the complex falls apart. The term kon denotes a measure of how fast the partners come together.

The target in assay [1] is recombinant CD3 proteins. As to the kind of experiment: Octet (BLI), bispecific antibody against recombinant CD3 proteins.
For assay [2], the target named is CD3 on effector cells (human Pan-T or PBMC) (human, UniProt P07766 23-207; P04234 22-171; P09693 23-182; P20963 22-164). As to the kind of experiment: cell-based or functional assay.
Chain of CD3 on effector cells (human Pan-T or PBMC) (P07766 23-207, chain 1 of 4): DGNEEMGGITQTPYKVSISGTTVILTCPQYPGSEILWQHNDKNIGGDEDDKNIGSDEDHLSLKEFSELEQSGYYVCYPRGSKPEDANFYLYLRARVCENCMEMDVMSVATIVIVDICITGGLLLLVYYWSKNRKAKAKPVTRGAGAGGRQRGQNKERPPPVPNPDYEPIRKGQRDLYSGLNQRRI
Chain of CD3 on effector cells (human Pan-T or PBMC) (P04234 22-171, chain 2 of 4): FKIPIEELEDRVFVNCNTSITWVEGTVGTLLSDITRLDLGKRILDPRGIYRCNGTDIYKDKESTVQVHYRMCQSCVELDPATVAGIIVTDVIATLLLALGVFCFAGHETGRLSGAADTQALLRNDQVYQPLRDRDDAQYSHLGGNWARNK
Chain of CD3 on effector cells (human Pan-T or PBMC) (P09693 23-182, chain 3 of 4): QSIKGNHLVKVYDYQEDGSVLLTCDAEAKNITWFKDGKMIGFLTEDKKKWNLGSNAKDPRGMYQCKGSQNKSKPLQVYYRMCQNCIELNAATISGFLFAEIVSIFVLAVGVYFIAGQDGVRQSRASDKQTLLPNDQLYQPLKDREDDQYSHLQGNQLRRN
Chain of CD3 on effector cells (human Pan-T or PBMC) (P20963 22-164, chain 4 of 4): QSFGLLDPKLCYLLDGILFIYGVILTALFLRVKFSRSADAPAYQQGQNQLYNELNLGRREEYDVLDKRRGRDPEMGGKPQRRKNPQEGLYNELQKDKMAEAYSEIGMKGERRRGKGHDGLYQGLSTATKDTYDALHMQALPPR
Assay [3] has as its target T1, recombinant CD3 proteins (UniProt P07766 23-126).
T1 construct: elsewhere it uses human CD3 E/D and E/G heterodimers
Put plainly: Octet BLI, recombinant CD3; Full R^2 0.8253. On the technique in general: Biolayer interferometry detects binding as a change in optical thickness at a sensor tip.

Assay [4] has as its target T1, recombinant CD3 proteins. Put plainly: Octet BLI, recombinant CD3; Full R^2 0.9897.
Assay [5] addresses T1, recombinant CD3 proteins. As to the kind of experiment: Octet BLI, recombinant CD3; Full R^2 0.9882.
Assay [6] has as its target T1, recombinant CD3 proteins. Put plainly: Octet BLI, recombinant CD3; Full R^2 0.987.
Assay [7] has as its target T1, recombinant CD3 proteins. Put plainly: Octet BLI, recombinant CD3; Full R^2 0.9881.
For assay [8], the target named is T1, recombinant CD3 proteins. Put plainly: Octet BLI, recombinant CD3; Full R^2 0.9905.
In assay [9] the target is T1, recombinant CD3 proteins. As to the kind of experiment: Octet BLI, recombinant CD3; Full R^2 0.9778.

T1 sequence (P07766 23-126): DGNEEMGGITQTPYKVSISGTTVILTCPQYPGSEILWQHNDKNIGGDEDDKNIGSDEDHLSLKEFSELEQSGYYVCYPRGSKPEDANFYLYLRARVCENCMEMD

B1: Control Humanized anti-CD3 (high affinity) scFv-Fc knob/TM, as bispecific with gemtuzumab (bispecific antibody)
scFv: EVQLVESGGGLVQPGGSLRLSCAASGFTFSTYAMNWVRQAPGKGLEWVGRIRSKYNNYATYYADSVKGRFTISRDDSKNTLYLQMNSLRAEDTAVYYCVRHGNFGDSYVSWFAYWGQGTLVTVSSGKPGSGKPGSGKPGSGKPGSQAVVTQEPSLTVSPGGTVTLTCGSSTGAVTTSNYANWVQQKPGKSPRGLIGGTNKRAPGVPARFSGSLLGGKAALTISGAQPEDEADYYCALWYSNHWVFGGGTKLTVLGGGGSDKTHTCPPCPAPEFEGGPSVFLFPPKPKDTLMISRTPEVTCVVVDVSHEDPEVKFNWYVDGVEVHNAKTKPREEQYNSTYRVVSVLTVLHQDWLNGKEYKCKVSNKALPASIEKTISKAKGQPREPQVYTLPPCREEMTKNQVSLWCLVKGFYPSDIAVEWESNGQPENNYKTTPPVLDSDGSFFLYSKLTVDKSRWQQGNVFSCSVMHEALHNHYTQKSLSLSPGK
heavy: EVQLVQSGAEVKKPGSSVKVSCKASGYTITDSNIHWVRQAPGQSLEWIGYIYPYNGGTDYNQKFKNRATLTVDNPTNTAYMELSSLRSEDTAFYYCVNGNPWLAYWGQGTLVTVSSASTKGPSVFPLAPSSKSTSGGTAALGCLVKDYFPEPVTVSWNSGALTSGVHTFPAVLQSSGLYSLSSVVTVPSSSLGTQTYICNVNHKPSNTKVDKRVEPKSCDKTHTCPPCPAPEFEGGPSVFLFPPKPKDTLMISRTPEVTCVVVDVSHEDPEVKFNWYVDGVEVHNAKTKPREEQYNSTYRVVSVLTVLHQDWLNGKEYKCKVSNKALPASIEKTISKAKGQPREPQVCTLPPSREEMTKNQVSLSCAVKGFYPSDIAVEWESNGQPENNYKTTPPVLDSDGSFFLVSKLTVDKSRWQQGNVFSCSVMHEALHNRFTQKSLSLSPGK
light: DIQLTQSPSTLSASVGDRVTITCRASESLDNYGIRFLTWFQQKPGKAPKLLMYAASNQGSGVPSRFSGSGSGTEFTLTISSLQPDDFATYYCQQTKEVPWSFGQGTKVEVKRTVAAPSVFIFPPSDEQLKSGTASVVCLLNNFYPREAKVQWKVDNALQSGNSQESVTEQDSKDSTYSLSSTLTLSKADYEKHKVYACEVTHQGLSSPVTKSFNRGEC
With B1, in the assay with recombinant CD3 proteins [1], the Kd is 20.1 nM, the Response was determined as 0.73, the off-rate constant (koff) is 0.00652 s⁻¹ and the on-rate (kon) is 325000 M⁻¹ s⁻¹. Also, in assay [2], the “RTCC EC50 (nM), KILR HL-60 T Cell Redirection cytotoxic assay with CD33-expressing target cells” value came out at 0.03 nM.

B2: CD3 × CD33-BspAb70 (bispecific antibody)
chain 1: EVQLVESGGGLVKPGGSLRLSCAASGFTFSSYSMKWVRQAPGKCLEWVSSISSSSSYIYYADSVKGRFTISRDNAKNSLYLQMNSLRAEDTAVYYCARDRGELTLWYWGQGTLVTVSSGGGGSGGGGSGGGGSGGGGSSYELTQPPSVSVSPGQTARITCSGDALPKKYAYWYQQKSGQAPVLVIYEDSKRPSGIPERFSGSSSGTMATLTISGAQVEDEADYYCYSTDSSGNHWVFGCGTKLTVLDKTHTCPPCPAPEFEGGPSVFLFPPKPKDTLMISRTPEVTCVVVDVSHEDPEVKFNWYVDGVEVHNAKTKPREEQYNSTYRVVSVLTVLHQDWLNGKEYKCKVSNKALPASIEKTISKAKGQPREPQVYTLPPCREEMTKNQVSLWCLVKGFYPSDIAVEWESNGQPENNYKTTPPVLDSDGSFFLYSKLTVDKSRWQQGNVFSCSVMHEALHNHYTQKSLSLSPGK
chain 2: B1 heavy
chain 3: B1 light
For the molecule B2, in the assay with recombinant CD3 proteins [3], the Kd turned out to be 9.11 nM, the dissociation rate constant (koff) turned out to be 0.00554 s⁻¹ and the kon is 609000 M⁻¹ s⁻¹.

B3: CD3 × CD33-BspAb84 (bispecific antibody)
chain 1: EVQVAESGGGLVKPGGSLRLSCAASGFTFSRYSMNWVRQAPGKCLEWVSSISSSGSYTYYADSVKGRFTISRDNAKNSLYLQMNSLRAEDTAVYYCVRERGKGAGMDVWGQGTTVTVSSGGGGSGGGGSGGGGSGGGGSNFMLTQPHSVSESPGKTVTISCTRSSGSIASNYVQWYQQRPGSSPTTVIYEDNQRPSGVPDRFSGSIDSSSNSASLTISGLKTEDEADYYCQSYDSSNRVFGCGTKLTVLDKTHTCPPCPAPEFEGGPSVFLFPPKPKDTLMISRTPEVTCVVVDVSHEDPEVKFNWYVDGVEVHNAKTKPREEQYNSTYRVVSVLTVLHQDWLNGKEYKCKVSNKALPASIEKTISKAKGQPREPQVYTLPPCREEMTKNQVSLWCLVKGFYPSDIAVEWESNGQPENNYKTTPPVLDSDGSFFLYSKLTVDKSRWQQGNVFSCSVMHEALHNHYTQKSLSLSPGK
chain 2: B1 heavy
chain 3: B1 light
For B3, in the assay with recombinant CD3 proteins [4], the Kd was 24.6 nM, the koff came out at 0.00671 s⁻¹ and the kon was determined as 273000 M⁻¹ s⁻¹.

B4: CD3 × CD33-BspAb67 (bispecific antibody)
chain 1: not shown
chain 2: B1 heavy
chain 3: B1 light
Regarding B4, in the assay with recombinant CD3 proteins [5], the Kd came to 5.57 nM, the koff was 0.00234 s⁻¹ and the kon was 421000 M⁻¹ s⁻¹.

B5: CD3 × CD33-BspAb82 (bispecific antibody)
chain 1: EVQLVESGGGLVKPGGSLRLSCAASGLTFSTYSMNWVRQAPGKCLEWVSSISSSGSYVYYADSVKGRFTMSRDNAKNSLYLQMNSLRAEDTAVYYCARERRELLFDYWGQGTLVTVSSGGGGSGGGGSGGGGSGGGGSNFMLTQPHSVSESPGKTVTISCTRSSGSIASNYVQWYQQRPGSSPTSVIYEDNQRPSGVPDRFSGSIDSSSNSASLTISGLKTEDEADYYCQSYDRSNRVFGCGTKLTVLDKTHTCPPCPAPEFEGGPSVFLFPPKPKDTLMISRTPEVTCVVVDVSHEDPEVKFNWYVDGVEVHNAKTKPREEQYNSTYRVVSVLTVLHQDWLNGKEYKCKVSNKALPASIEKTISKAKGQPREPQVYTLPPCREEMTKNQVSLWCLVKGFYPSDIAVEWESNGQPENNYKTTPPVLDSDGSFFLYSKLTVDKSRWQQGNVFSCSVMHEALHNHYTQKSLSLSPGK
chain 2: B1 heavy
chain 3: B1 light
B5: in the assay with recombinant CD3 proteins [6], the Kd came to 18.7 nM, the koff is 0.00536 s⁻¹ and the association rate constant (kon) turned out to be 287000 M⁻¹ s⁻¹.

B6: CD3 × CD33-BspAb81 (bispecific antibody)
chain 1: QVQLQESGPGLVKPSQTLSLTCTVSGGSISSGGYYWSWIRQHPGKCLEWIGYIYYSGSTYYNPSLKSRVTISVDTSKDQFSLKLSSVTAADTAVYYCARERKTSLPFDIWGQGTMVTVSSGGGGSGGGGSGGGGSGGGGSNFMLTQPHSVSESPGKTVTISCTRSSGSIASNYVQWYQQRPGSSPTTVIYEDNQRPSGVPDRFSGSIDSSSNSASLTISGLKTEDEAYYYCQSFDSSNRVFGCGTKLTVLDKTHTCPPCPAPEFEGGPSVFLFPPKPKDTLMISRTPEVTCVVVDVSHEDPEVKFNWYVDGVEVHNAKTKPREEQYNSTYRVVSVLTVLHQDWLNGKEYKCKVSNKALPASIEKTISKAKGQPREPQVYTLPPCREEMTKNQVSLWCLVKGFYPSDIAVEWESNGQPENNYKTTPPVLDSDGSFFLYSKLTVDKSRWQQGNVFSCSVMHEALHNHYTQKSLSLSPGK
chain 2: B1 heavy
chain 3: B1 light
With B6, in the assay with recombinant CD3 proteins [7], the dissociation constant (Kd) worked out at 69.4 nM, the off-rate constant (koff) is 0.00791 s⁻¹ and the kon worked out at 114000 M⁻¹ s⁻¹.

B7: CD3 × CD33-BspAb80 (bispecific antibody)
chain 1: QVQLQESGPGLVKPSETLSLTCTVSGGSISSYYWSWIRQPAGKCLEWIGRIYTSGSTKYNPSLKSRVTMSVDTSKNQFSLKLISVTAADTAVYFCARERIRDLYFDYWGQGTLVTVSSGGGGSGGGGSGGGGSGGGGSNFMLTQPHSVSESPGKTVTISCTRTSGSIASNYVQWYQQRPGSSPTTVIYEDNQRPSGVPDRFSGSIDSSSNSASLTISGLKTEDEAAYYCQSYDRSNRVFGCGTKLTVLDKTHTCPPCPAPEFEGGPSVFLFPPKPKDTLMISRTPEVTCVVVDVSHEDPEVKFNWYVDGVEVHNAKTKPREEQYNSTYRVVSVLTVLHQDWLNGKEYKCKVSNKALPASIEKTISKAKGQPREPQVYTLPPCREEMTKNQVSLWCLVKGFYPSDIAVEWESNGQPENNYKTTPPVLDSDGSFFLYSKLTVDKSRWQQGNVFSCSVMHEALHNHYTQKSLSLSPGK
chain 2: B1 heavy
chain 3: B1 light
As to B7, in the assay with recombinant CD3 proteins [8], the dissociation constant (Kd) came to 6.06 nM, the dissociation rate constant (koff) was determined as 0.00186 s⁻¹ and the association rate constant (kon) turned out to be 308000 M⁻¹ s⁻¹.

B8: CD3 × CD33-BspAb83 (bispecific antibody)
chain 1: EVQLVESGGGLVKPGGSLRLSCVASGFTFSRYSMNWVRQAPGKCLEWVSSISSSSRYTYYADSLKGRFIMSRDNAKNSLFLQMNSLRAEDTAVYYCARNLYNALDYWGQGTLVTVSSGGGGSGGGGSGGGGSGGGGSFMLTQPHSVSESPGKTVTISCTRSSGSIASNYVQWYQQRPGSSPTTVIYEDNQRPSGVPDRFSGSIDSSSNSASLTISGLQTEDEADYYCQSYDSSNRVFGCGTKLTVLDKTHTCPPCPAPEFEGGPSVFLFPPKPKDTLMISRTPEVTCVVVDVSHEDPEVKFNWYVDGVEVHNAKTKPREEQYNSTYRVVSVLTVLHQDWLNGKEYKCKVSNKALPASIEKTISKAKGQPREPQVYTLPPCREEMTKNQVSLWCLVKGFYPSDIAVEWESNGQPENNYKTTPPVLDSDGSFFLYSKLTVDKSRWQQGNVFSCSVMHEALHNHYTQKSLSLSPGK
chain 2: B1 heavy
chain 3: B1 light
Regarding B8, in the assay with recombinant CD3 proteins [9], the Kd was found to be 3.28 nM, the koff is 0.00134 s⁻¹ and the kon stood at 408000 M⁻¹ s⁻¹.

B9: Control Humanized anti-CD3 (low affinity) scFv-Fc knob/TM, as bispecific with gemtuzumab (bispecific antibody)
scFv: B1 scFv with A113D
heavy: B1 heavy
light: B1 light
In the case of B9, in the assay with recombinant CD3 proteins [1], the Kd came to 50.3 nM, the Response came to 0.3, the off-rate (koff) was found to be 0.0121 s⁻¹ and the on-rate constant (kon) came out at 241000 M⁻¹ s⁻¹. Also, in [2], the “RTCC EC50 (nM), KILR HL-60 T Cell Redirection cytotoxic assay with CD33-expressing target cells” value is 1.48 nM.
